In US20060008846A1 (RESEARCH DEVELOPMENT FOUNDATION, published 2006):

Columns and labels:
[1] = biological target: ActRII (type II activin receptor) transfected into 293T cells (UniProt P27038); experiment: cell-based or functional assay
[2] = biological target: T1, ALK4 (activin type I receptor) (UniProt P36896 24-505, limits assumed); experiment: cell-based or functional assay
T1 sequence (looked up): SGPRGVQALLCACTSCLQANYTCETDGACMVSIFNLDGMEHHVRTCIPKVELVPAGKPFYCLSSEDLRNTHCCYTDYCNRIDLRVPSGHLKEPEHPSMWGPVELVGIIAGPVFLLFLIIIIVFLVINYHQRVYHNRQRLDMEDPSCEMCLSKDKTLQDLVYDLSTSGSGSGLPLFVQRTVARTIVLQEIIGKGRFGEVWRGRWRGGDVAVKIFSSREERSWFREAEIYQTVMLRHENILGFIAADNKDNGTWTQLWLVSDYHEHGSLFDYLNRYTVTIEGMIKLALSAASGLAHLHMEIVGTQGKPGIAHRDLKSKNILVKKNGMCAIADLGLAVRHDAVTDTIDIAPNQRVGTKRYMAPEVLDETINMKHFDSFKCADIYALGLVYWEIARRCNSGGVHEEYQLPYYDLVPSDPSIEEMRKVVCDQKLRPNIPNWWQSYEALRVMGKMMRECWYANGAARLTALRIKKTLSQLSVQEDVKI

[3] = biological target: T1, ALK4 (activin type I receptor); experiment: cell-based or functional assay; remark: listed apart in the source
[4] = biological target: T2, mouse ActRII transfected into 293T cells (mouse, UniProt P27038 20-513); experiment: ActRII binding, 293T cells transfected with mouse ActRII
T2 construct: whole, on cells
Experimental: After the incubation cells were washed three times with HDB buffer and lysed with 1% SDS solution. Radioactivity in the lysate was determined using a gamma counter.
Therefore, the inventors contemplate engineering a series of activin-A chimeras, such as activin-A/C chimeras, preferably having a peptide tag such a FLAG tag, in each of […] in the wrist loop and helix (such as A/C 46-53, 54-63, 64-69, 70-78) are replaced. Additionally, a chimera was generated in which the entire wrist region (A/C 46-78) was changed from activin-A to activin-C or some other analogous TGF-β member. In one example, the chimeras were assessed for ActRII binding, activin bioactivity as well as antagonistic properties. […] Maximum activity of A/C 64-69 and 70-78, however, was reduced down to about 20-50% and 60-90%, respectively, when compared to wt activin. […] Additionally, A/C 46-78 decreased the basal and activin induced FSH release from cultured rat anterior pituitary cells in a concentration dependent manner. […] The activin antagonist A/C 46-78 may be useful for the study and modulation of activin dependent processes.

[5] = biological target: activin receptors of non-transfected 293T cells; experiment: competition binding, 125I-activin on non-transfected 293T cells
[6] = biological target: T3, ActRII and ALK4 co-transfected into 293T cells (UniProt P27038 20-513; P36896 24-505); experiment: competition binding, 125I-activin on 293T cells transfected with ActRII and ALK4
T3 construct: whole, on cells; Both receptors on the same cells; also called cells transfected with ActRII and ALK4; receptor complex

[7] = biological target: T1, ALK4 (activin type I receptor); experiment: DSS crosslinking of 125I-M108A to 293T cells transfected with ActRII-myc and ALK4, immunoprecipitation, SDS-PAGE, autoradiography
Experimental: Cells were incubated with labeled activin or labeled M108A as indicated, subjected to covalent crosslinking with dissucinylsuberate (DSS), solubilized in lysis buffer, immunoprecipitated using an antibody against myc or ALK4 and then immunoprecipitated proteins were resolved by SDS-PAGE and visualized by autoradiography.
Approximately 24 h later, cells were transfected with 2 μg DNA per well with the indicated constructs (the ratio of ActRII:ALK4 was 2:1 and total DNA was kept constant using pcDNA3.0). […] Cells were washed in HDB, resuspended at 0.5 mM disuccinylsuberate (DSS) in HDB and incubated 30 min on ice. Crosslinking reactions were quenched with TBS (50 mM Tris-HCl pH 7.5, 150 mM NaCl) and cells were solubilized in lysis buffer (TBS containing 1% NP-40, 0.5% deoxycholate and 2 mM EDTA) and subjected to immunopreciptation using anti-myc or anti-ALK4 antibodies as indicated. Immune complexes were analyzed by SDS-PAGE and autoradiography.

Sequence of ActRII (type II activin receptor) transfected into 293T cells (P27038 20-513): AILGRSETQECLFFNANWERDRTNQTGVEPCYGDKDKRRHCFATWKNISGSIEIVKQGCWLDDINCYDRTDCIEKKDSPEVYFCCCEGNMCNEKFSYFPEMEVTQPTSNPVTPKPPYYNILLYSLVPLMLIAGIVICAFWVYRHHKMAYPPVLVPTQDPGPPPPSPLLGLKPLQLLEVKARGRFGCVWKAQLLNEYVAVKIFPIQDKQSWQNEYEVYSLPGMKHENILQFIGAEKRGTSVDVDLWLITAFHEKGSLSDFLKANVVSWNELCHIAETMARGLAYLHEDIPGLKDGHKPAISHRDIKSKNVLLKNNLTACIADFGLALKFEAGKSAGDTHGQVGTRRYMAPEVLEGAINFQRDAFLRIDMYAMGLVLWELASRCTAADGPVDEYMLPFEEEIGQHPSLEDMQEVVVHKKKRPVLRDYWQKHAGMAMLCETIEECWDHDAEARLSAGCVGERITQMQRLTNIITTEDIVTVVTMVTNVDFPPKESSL
T3 sequence (P27038 20-513, one chain of several): as the sequence (P27038 20-513) above
T2 sequence (P27038 20-513): as above

B1: activin-A K102E (ligand, human, UniProt P08476 311-426, looked up)
chain: GLECDGKVNICCKKQFFVSFKDIGWNDWIIAPSGYHANYCEGECPSHIAGTSGSSLSFHSTVINHYRMRGHSPFANLKSCCVPTKLRPMSMLYYDDGQNIIEKDIQNMIVEECGCS
How did the % Activin Activity (A3-luciferase assay in 293T cells) (% of wild type activin-A) [1] turn out when B1 was run?
Its % Activin Activity (A3-luciferase assay in 293T cells) (% of wild type activin-A) is 18.

B2: wild type activin-A (ligand, human, UniProt P08476 311-426, looked up)
chain: GLECDGKVNICCKKQFFVSFKDIGWNDWIIAPSGYHANYCEGECPSHIAGTSGSSLSFHSTVINHYRMRGHSPFANLKSCCVPTKLRPMSMLYYDDGQNIIKKDIQNMIVEECGCS
notes: mature; As tracer it was radioiodinated by the chloramine T method; also called WT activin-A; wt activin-A
Which “EC50 of activity in the A3 Lux reporter assay in 293T cells” value [2] does the source give for B2 here?
Its value is 0.2 nM.

What about the “% Activin Activity (A3-luciferase assay in 293T cells)” value [3] of the same binder?
The value was 100 % of wild type activin-A.

And the EC50 [4]?
The EC50 was 0.15 nM.

And the apparent affinity [5]?
The apparent affinity was 60 to 80 pM.

What about the fold higher affinity than in cells transfected with ActRII alone [5] of the same binder?
The fold higher affinity than in cells transfected with ActRII alone was 2 fold.

What about the “fold higher affinity than in cells transfected with ActRII alone” value [6] of the same binder?
The value was 2 fold.

B3: activin-A (M108A) (ligand, human, UniProt P08476 311-426, looked up)
chain: GLECDGKVNICCKKQFFVSFKDIGWNDWIIAPSGYHANYCEGECPSHIAGTSGSSLSFHSTVINHYRMRGHSPFANLKSCCVPTKLRPMSMLYYDDGQNIIKKDIQNAIVEECGCS
notes: mature; Radioiodinated by the chloramine T method for the crosslinking study; also called M108A activin-A; M108A mutant
What does the source list for B3?
% Activin Activity (A3-luciferase assay in 293T cells) [3]: 8 % of wild type activin-A; affinity [5]: 370 pM; binding result [7]: no binding
